Measured values: patent publication US20210238252A1

Target: Fc receptor CD16 (UniProt P08637)
Test: cell-based or functional assay

Fc receptor CD16, sequence (P08637 17-254 limits assumed): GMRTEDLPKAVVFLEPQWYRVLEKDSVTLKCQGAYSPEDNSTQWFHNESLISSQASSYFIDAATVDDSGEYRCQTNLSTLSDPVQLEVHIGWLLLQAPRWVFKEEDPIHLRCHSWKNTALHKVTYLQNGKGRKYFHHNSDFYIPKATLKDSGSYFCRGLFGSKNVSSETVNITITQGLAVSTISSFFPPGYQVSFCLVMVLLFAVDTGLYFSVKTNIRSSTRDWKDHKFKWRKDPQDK

Substance: IgGb12 (antibody)
- IC50, ADCC: killing of BaL-infected CEM.NKR.CCR5+ Luc cells by KHYG-1 CD16+ NK cells: 0.0662 µg/mL
